# From patent publication US8420311B2, “Method to block the infection by flaviviruses, molecules and uses” (Centro de Ingenieria Genetica y Biotecnologia, priority 2006, dated 2013)
# B1: RAPR13: recombinant human LRPAP1 (RAP) protein with N-terminal tag of 6 histidines, SEQ ID. 26 (protein, listed as Homo sapiens)
# chain: MGSSHHHHHHSSGLVPRGSHMYSREKNQPKPSPKRESGEEFRMEKLNQLWEKAQRLHLPPVRLAELHADLKIQERDELAWKKLKLDGLDEDGEKEARLIRNLNVILAKYGLDGKKDARQVTSNSLSGTQEDGLDDPRLEKLWHKAKTSGKFSGEELDKLWREFLHHKEKVHEYNVLLETLSRTEEIHENVISPSDLSDIKGSVLHSRHTELKEKLRSINQGLDRLRRVSHQGYSTEAEFEEPRVIDLWDLAQSANLTDKELEAFREELKHFEAKIEKHNHYQKQLEIAHEKLRHAESVGDGERVSRSREKHALLEGRTKELGYTVKKHLQDLSGRISRARHNEL
# modifications: N-terminal His6 tag
# Tests used:
# DV4 TVP360 = assay: Inhibition of the infection of Vero cells by a natural ligand of the A2MR receptor or anti-receptor antibodies (lytic plaques); format: cell-based, dengue virus; conditions: inhibition percentage; RAP13 and BSA 100 μg/mL, antibody preparations 1/100 dilution; average of three determinations
# Method: (§1) Vero cells were grown in 24-well plates to approximately 90% confluence, and washed twice with MEM medium without FCS. The dilutions containing the proteins or the antibodies, according to the objective of the assay, were then added and incubated for 1 hour at 37° C. After the incubation, the virus was added at a multiplicity of infection of 0.1, followed by a subsequent incubation for 1 hour at 37° C. At the end of the second incubation, the unbound virus was eliminated by washing, and the cells were incubated for 5 days at 37° C. in high density medium (MEM supplemented with non essential aminoacids, 1% FCS, 1% carboxymethylcellulose) in order to propitiate the appearance of lytic plaques. The plaques were visualized by staining with 0.1% Naphtol Blue Black in 0.15 Mol/L sodium acetate. Two replicates were used per experimental point in each assay, and three independent determinations were performed. The inhibition percentage was calculated according to the expression
# (§2) The assay for the inhibition of infection was performed on 24-well plates seeded with a monolayer of Vero cells at approximately 90% confluence. The dilution of the virus was adjusted to obtain approximately 20 lytic plaques per well. […] There were no significant reductions when the cells were pre-incubated with BSA or with antibody preparations against an unrelated antigen.
# DV3 CH53489 = assay: as above; format: cell-based, dengue virus; conditions: inhibition percentage; RAP13 and BSA 100 μg/mL, antibody preparations 1/100 dilution; average of three determinations
# Method: as §1, §2
# DV1 West Pac 74 = assay: as above; format: cell-based, dengue virus; conditions: inhibition percentage; RAP13 and BSA 100 μg/mL, antibody preparations 1/100 dilution; average of three determinations
# Method: as §1, §2
# DV2 S16803 = assay: as above; format: cell-based, dengue virus
# Method: FIG. 8. Effect of recombinant RAP on the infection of Vero cells with DV2, strain S16803. Vero monolayers at 90% confluence were pre-incubated with different dilutions of RAPR13 or BSA, for 1 hour at 37° C., followed by the addition of the viral preparation at a multiplicity of infection of 1 and another incubation at 37° C. for 1 hour. After eliminating the unbound viruses, MEM medium supplemented with non-essential aminoacids, 1% FCS and 1% CMC was added, and the cells were incubated for 5 days at 37° C. The lytic plaques were visualized by staining the monolayer with Naphtol Blue Black. The assays were performed in 24-well plates, using duplicates for each point of the assay.
# Vero cells were grown in 24-well plates to approximately 90% confluence, and washed twice with MEM medium without FCS. The dilutions containing the proteins or the antibodies, according to the objective of the assay, were then added and incubated for 1 hour at 37° C. After the incubation, the virus was added at a multiplicity of infection of 0.1, followed by a subsequent incubation for 1 hour at 37° C. […] The inhibition percentage was calculated according to the expression […]
# Vero cells = assay: Binding of fluoresceinated proteins to the surface of Vero cells (flow cytometry); format: cell-based, monkey
# Method: FIG. 7. Inhibition of the binding of DIIIE2J to Vero cells by A2M and RAPR13. The pre-fixed cells were incubated with the fluoresceinated proteins, and the intensity of the fluorescence due to binding of the fluoresceinated ligands to the cells was measured by flow cytometry. Each experimental point represents data gathered from a minimum of 20 000 cells. (A) Binding of A2M and RAPR13 to the cells. The depicted values correspond to the average of the intensity of the fluorescence at each point of the assay minus the fluorescence obtained with untreated cells. (B) and (C) The cells were incubated with fluoresceinated DIIIE2J in the presence or absence of the non-fluoresceinated ligands, using the molar ratio indicated on each case. The % binding was calculated from the ratio of the average intensity of the fluorescence of the cells incubated with the mixture of fluoresceinated DIIIE2J plus the proteins, between that of the cells incubated only with fluoresceinated DIIIE2J.
# In the case of cultured Vero cells, they were detached from the surface of the culture flask without using proteases, by incubation with PBS pH 7.4, 5 mM EDTA for 10 min. at 37° C., gently tapping the outside of the flask.
# The cells, collected and washed as described above, were incubated in fixing solution (PBS pH 7.4, 2% paraformaldehyde, 0.01% NaN3, 1 mM CaCl2, 1 mM MgCl2 for 30 min at 4° C., and the fixing solution was then eliminated by centrifugation at 350×g for 5 min a 4° C. […] The intensity of the fluorescence was quantified by flow cytometry on a PAS III cytometer (Partec, Germany). The values for each experimental point were calculated from measurements on a minimum of 20 000 cells.
# Given that this cell line is derived from monkey kidney cells and that the ligands for the A2MR receptor used in the assays are of human origin, a preliminary and necessary step was the corroboration of the binding of the RAPR13 and A2M MeNH2 proteins to Vero cells. With this aim, these proteins were fluoresceinated, and their binding to the surface of Vero cells was measured using flow cytometry. […]
molecule,measurement,setting,value
B1,"inhibition of the infection, DV4",DV4 TVP360,75
same,"inhibition of the infection, DV3",DV3 CH53489,60
same,"inhibition of the infection, DV1",DV1 West Pac 74,65
same,"inhibition of the infection, DV2","DV2 S16803; inhibition percentage, RAP13 and BSA 100 μg/mL, antibody preparations 1/100 dilution, average of three determinations",76
same,"inhibition of the infection for DV2, concentration dependence","DV2 S16803; lytic plaque reduction assay, dilutions of RAPR13 (FIG. 8)",dependent on the protein concentration
same,binding to the surface of Vero cells,Vero cells; fluoresceinated proteins (FIG. 7A),concentration-dependant and saturable binding behavior
same,binding of fluoresceinated A2M_MeNH2 to Vero cells in the presence of unlabelled protein,"Vero cells; unlabelled protein at 100-fold molar excess, 30 min. at 4° C. (FIG. 7B)",decrease in fluorescence
